Each block holds one binder with its values, some of them ahead of it.
Target: T1, human EphA2-Fc (human, UniProt P29317 25-534, limits assumed)
T1 construct: Coated on Azlactone beads and titrated in solution in KinExA; not shown: Fc part
Assay: KinExA, EphA2-Fc beads, solution equilibrium titration
Experimental: Protein concentrations were calculated by the BCA method. […] Coated beads were then separated from unreacted EphA2-Fc using a gentle pulse spin and blocked for approximately 2 h at room temperature with 1 M Tris, pH 8.0, bovine serum albumin 10 mg/mL. Beads were then resuspended in 30 mL of run buffer (PBS, pH 7.4-0.02% NaN₃) and packed into a column. […] The amount of free IgG in the samples was derived from the fluorescence signal obtained after the passing of Cy5-labeled goat anti-human IgG F(ab′)₂ (typically 0.5-2 μg/ml; Jackson ImmunoResearch Laboratories, West Grove, Pa.) through the column.

T1 sequence (P29317 25-534 limits assumed): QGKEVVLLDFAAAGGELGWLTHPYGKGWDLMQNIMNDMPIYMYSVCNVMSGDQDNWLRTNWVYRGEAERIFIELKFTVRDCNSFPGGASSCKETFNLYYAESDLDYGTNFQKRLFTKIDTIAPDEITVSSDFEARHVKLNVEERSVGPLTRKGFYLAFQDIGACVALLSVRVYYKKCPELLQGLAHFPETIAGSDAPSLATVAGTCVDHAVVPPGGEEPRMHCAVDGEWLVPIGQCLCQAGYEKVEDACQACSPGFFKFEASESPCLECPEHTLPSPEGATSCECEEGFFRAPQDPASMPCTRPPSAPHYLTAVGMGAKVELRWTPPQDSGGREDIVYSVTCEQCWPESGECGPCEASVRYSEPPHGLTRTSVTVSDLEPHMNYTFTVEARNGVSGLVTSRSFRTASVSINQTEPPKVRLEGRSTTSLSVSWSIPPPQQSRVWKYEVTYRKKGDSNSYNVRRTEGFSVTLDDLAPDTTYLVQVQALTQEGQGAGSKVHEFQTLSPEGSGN

Kd: 1.1 pM
B1: mAb 12G3H11, human anti-human EphA2 monoclonal antibody, wild type hinge (antibody, human IgG1, V domains shown)
VH: QMQLVQSGPEVKKPGTSVKVSCKASGFTFDDYSMNWVRQARGQRLEWIGFIRNKANDYTTEYADSVKGRVTITRDMSTSTAYMELSSLRSEDTAVYYCARYPRHHAMDSWGQGTSVTVSS
VL: DIQMTQSPSSLSASVGDRVTITCRASQSISNNLHWYQQKPGKAPKLLIKYAFQSISGVPSRFSGSGSGTDFTFTISSLQPEDFATYYCQQANSWPLTFGGGTKVEIK
notes: Human IgG1/kappa expressed in HEK 293 cells; also called Wild type (12G3H11); 12G3H11 “wild type”; not shown: human kappa light chain constant region

Kd: 0.8 pM
B2: 12G3H11 Fc variant 5-GGG Insert Low (antibody, IgG1)
heavy (part 1 of 2): B1 VH
heavy (part 2 of 2): not shown
light: B1 VL
notes: domain: lower hinge, CH2, CH3; 12G3H11 IgG1/kappa; GGG inserted between P227 and P228; not shown: human IgG1 heavy chain constant region, CH1 up to EU 215; human IgG1 heavy chain constant region from EU 231 (lower hinge, CH2, CH3); human kappa light chain constant region

Kd: 7.2 pM
B3: 12G3H11 Fc variant 14-T to C Middle (antibody, IgG1)
heavy (part 1 of 2): B1 VH
heavy (part 2 of 2): not shown
light: B1 VL
notes: domain: lower hinge, CH2, CH3; 12G3H11 IgG1/kappa; T223C; not shown: human IgG1 heavy chain constant region, CH1 up to EU 215; human IgG1 heavy chain constant region from EU 231 (lower hinge, CH2, CH3); human kappa light chain constant region

Kd: 1.7 pM
B4: 12G3H11 Fc variant 13-2 AA Delete Mid (antibody, IgG1)
heavy (part 1 of 2): B1 VH
heavy (part 2 of 2): not shown
light: B1 VL
notes: domain: lower hinge, CH2, CH3; 12G3H11 IgG1/kappa; T223 and H224 deleted; not shown: human IgG1 heavy chain constant region, CH1 up to EU 215; human IgG1 heavy chain constant region from EU 231 (lower hinge, CH2, CH3); human kappa light chain constant region

Kd: ≤ 1 pM
B5: 12G3H11 Fc variant 11-4 AA Delete (antibody, IgG1)
heavy (part 1 of 2): B1 VH
heavy (part 2 of 2): not shown
light: B1 VL
notes: domain: lower hinge, CH2, CH3; 12G3H11 IgG1/kappa; T223, H224, P227 and P228 deleted; not shown: human IgG1 heavy chain constant region, CH1 up to EU 215; human IgG1 heavy chain constant region from EU 231 (lower hinge, CH2, CH3); human kappa light chain constant region

Kd: 2.7 pM
B6: 12G3H11 Fc variant 6-GGG Insert High (antibody, IgG1)
heavy (part 1 of 2): B1 VH
heavy (part 2 of 2): not shown
light: B1 VL
notes: domain: lower hinge, CH2, CH3; 12G3H11 IgG1/kappa; GGG inserted between D(Kabat 234) and K222; not shown: human IgG1 heavy chain constant region, CH1 up to EU 215; human IgG1 heavy chain constant region from EU 231 (lower hinge, CH2, CH3); human kappa light chain constant region

Kd: 1.5 pM
B7: 12G3H11 Fc variant 18-EPKS to PPPP (antibody, IgG1)
heavy (part 1 of 2): B1 VH
heavy (part 2 of 2): not shown
light: B1 VL
notes: domain: lower hinge, CH2, CH3; 12G3H11 IgG1/kappa; EPKS replaced by PPPP; not shown: human IgG1 heavy chain constant region, CH1 up to EU 215; human IgG1 heavy chain constant region from EU 231 (lower hinge, CH2, CH3); human kappa light chain constant region

Source: patent US20110077383A1 (AstraZeneca / MedImmune, published 2011)
